Assay [1] addresses T1, GST-EPLIN (full length, isoform alpha) (UniProt Q9UHB6-2 1-599).
T1 construct: EPLIN (epithelial protein lost in neoplasm, LIMA1 product), isoform alpha, full length; ORF amplified from Addgene plasmid #40928; numbers count on: isoform alpha; Vector pGEX2T; All EPLIN constructs derive from plasmid #1 (isoform alpha); also called epithelial protein lost in neoplasm; LIMA1 product
Briefly: pull-down; GST fusion from E. coli extract held on glutathione Sepharose beads, washed with PBS, blocked with 1.5 μM BSA; purified His6-tagged protein added at 1.5 μM for 30 min in PBS with 0.1 mM Zn2+; eluted with 10 mM reduced glutathione; SDS-PAGE and Western blot. The conditions noted are these: both partners purified. (In general: In western blotting, separated proteins are transferred to a membrane and probed.)

Assay [2] has as its target T2, His6-SEPT9 ΔNΔC (G domain, aa 295-567) (UniProt Q9UHD8 295-567).
T2 construct: also called ΔNΔC-SEPT9; source: E. coli BL21DE3, purified (HisTrap IMAC, buffered in PBS by PD10)
T2 sequence (looked up): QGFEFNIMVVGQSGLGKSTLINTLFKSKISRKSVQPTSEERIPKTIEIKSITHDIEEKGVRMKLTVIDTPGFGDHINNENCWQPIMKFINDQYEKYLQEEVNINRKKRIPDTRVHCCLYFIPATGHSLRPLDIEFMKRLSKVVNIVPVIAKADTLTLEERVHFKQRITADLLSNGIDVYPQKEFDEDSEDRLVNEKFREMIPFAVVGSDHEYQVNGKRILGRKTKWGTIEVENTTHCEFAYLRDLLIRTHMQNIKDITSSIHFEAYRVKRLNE
Described as above. The conditions noted are these: both partners purified.

T1 sequence (Q9UHB6 161-759): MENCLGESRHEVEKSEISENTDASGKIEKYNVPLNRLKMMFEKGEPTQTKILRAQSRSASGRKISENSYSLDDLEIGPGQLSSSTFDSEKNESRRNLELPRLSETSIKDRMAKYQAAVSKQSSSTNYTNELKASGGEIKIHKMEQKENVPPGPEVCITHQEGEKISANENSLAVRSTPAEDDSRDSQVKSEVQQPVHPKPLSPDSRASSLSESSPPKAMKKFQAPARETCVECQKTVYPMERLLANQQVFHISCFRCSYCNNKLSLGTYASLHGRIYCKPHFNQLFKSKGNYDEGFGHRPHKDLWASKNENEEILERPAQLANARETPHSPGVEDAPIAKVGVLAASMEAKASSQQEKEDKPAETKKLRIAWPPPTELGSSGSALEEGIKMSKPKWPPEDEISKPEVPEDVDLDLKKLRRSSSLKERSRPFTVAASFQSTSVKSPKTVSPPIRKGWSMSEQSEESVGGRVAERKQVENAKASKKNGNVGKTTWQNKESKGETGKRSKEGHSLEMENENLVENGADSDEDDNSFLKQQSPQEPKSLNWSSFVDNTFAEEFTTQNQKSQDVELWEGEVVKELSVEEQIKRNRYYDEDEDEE

B1: His6-SEPT9 (full length, SEPT9i1) (natural protein, UniProt Q9UHD8 1-586, looked up)
chain: MKKSYSGGTRTSSGRLRRLGDSSGPALKRSFEVEEVETPNSTPPRRVQTPLLRATVASSTQKFQDLGVKNSEPSARHVDSLSQRSPKASLRRVELSGPKAAEPVSRRTELSIDISSKQVENAGAIGPSRFGLKRAEVLGHKTPEPAPRRTEITIVKPQESAHRRMEPPASKVPEVPTAPATDAAPKRVEIQMPKPAEAPTAPSPAQTLENSEPAPVSQLQSRLEPKPQPPVAEATPRSQEATEAAPSCVGDMADTPRDAGLKQAPASRNEKAPVDFGYVGIDSILEQMRRKAMKQGFEFNIMVVGQSGLGKSTLINTLFKSKISRKSVQPTSEERIPKTIEIKSITHDIEEKGVRMKLTVIDTPGFGDHINNENCWQPIMKFINDQYEKYLQEEVNINRKKRIPDTRVHCCLYFIPATGHSLRPLDIEFMKRLSKVVNIVPVIAKADTLTLEERVHFKQRITADLLSNGIDVYPQKEFDEDSEDRLVNEKFREMIPFAVVGSDHEYQVNGKRILGRKTKWGTIEVENTTHCEFAYLRDLLIRTHMQNIKDITSSIHFEAYRVKRLNEGSSAMANGMEEKEPEAPEM
notes: derived from plasmid #5 (EGFP-SEPT9, gift of E. Spiliotis); pES is an in-house pET15A-based plasmid for His6-tagged proteins; also called His-SEPT9; purified SEPT9; source: E. coli BL21DE3, purified (HisTrap IMAC, buffered in PBS by PD10)
B1: in assay [1], the binding result was “binds”.

B2: GST-EPLIN LIM (aa 228-288) (domain or fragment)
chain: not shown
notes: EPLIN (LIMA1 product), isoform alpha, residues 228-288, the LIM domain; Vector pGEX2T; also called isolated LIM domain of EPLIN; plasmid #7
As to B2, the binding result in assay [2] is on record as “binds”.

The record behind these values is article PMC11077590, “The concerted action of SEPT9 and EPLIN modulates the adhesion and migration of human fibroblasts” (Life Science Alliance, 2024).
